Source: PMC3230775 (Nature structural & molecular biology, 2011)

T1: BCAR3 C-terminal domain (residues 502-825) (human, UniProt O75815 502-825)
T1 sequence: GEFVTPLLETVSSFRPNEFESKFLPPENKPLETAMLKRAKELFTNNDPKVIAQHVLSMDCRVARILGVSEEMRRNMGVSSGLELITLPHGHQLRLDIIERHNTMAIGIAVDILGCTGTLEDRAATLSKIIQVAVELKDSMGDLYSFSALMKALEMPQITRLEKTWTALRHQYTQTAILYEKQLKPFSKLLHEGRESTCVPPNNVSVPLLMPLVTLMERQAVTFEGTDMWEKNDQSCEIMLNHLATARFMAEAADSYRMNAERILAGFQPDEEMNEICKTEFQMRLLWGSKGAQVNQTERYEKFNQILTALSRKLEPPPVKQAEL

B1: p130Cas C-terminal domain (residues 645-870) (domain or fragment)
chain: SQDSPDGQYENSEGGWMEDYDYVHLQGKEEFEKTQKELLEKGSITRQGKSQLELQQLKQFERLEQEVSRPIDHDLANWTPAQPLAPGRTGGLGPSDRQLLLFYLEQCEANLTTLTNAVDAFFTAVATNQPPKIFVAHSKFVILSAHKLVFIGDTLSRQAKAADVRSQVTHYSNLLCDLLRGIVATTKAAALQYPSPSAAQDMVERVKELGHSTQQFRRVLGQLAAA

What was measured:
[1] = target: p130Cas C-terminal domain (residues 645-870) (human) (UniProt P56945); test: crystal structure
[2] = target: T1, BCAR3 C-terminal domain (residues …); test: ITC

Molecule	stoichiometry N [1]	Kd [2] [nM]
NSP3 C-terminal domain (residues 382-703) (domain or fragment)	1	–
B1	–	30
